Legend:
Assay in all cases: cryo-EM structure
[1] = biological target: T1, MAEA (U-box subunit of the CTLH E3 catalytic module) (human, UniProt Q7L5Y9 1-396)
T1 sequence: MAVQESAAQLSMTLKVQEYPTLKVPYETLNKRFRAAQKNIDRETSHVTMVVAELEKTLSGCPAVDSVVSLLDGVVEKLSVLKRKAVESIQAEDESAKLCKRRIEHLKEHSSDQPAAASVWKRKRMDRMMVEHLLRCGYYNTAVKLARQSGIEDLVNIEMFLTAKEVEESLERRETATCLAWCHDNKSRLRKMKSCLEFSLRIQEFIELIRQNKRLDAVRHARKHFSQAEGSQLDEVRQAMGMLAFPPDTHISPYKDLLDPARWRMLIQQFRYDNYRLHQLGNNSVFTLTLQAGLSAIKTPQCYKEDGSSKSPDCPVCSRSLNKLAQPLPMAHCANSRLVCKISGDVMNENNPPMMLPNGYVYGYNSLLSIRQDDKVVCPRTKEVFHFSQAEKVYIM

[2] = biological target: T2, RMND5A (RING subunit of the CTLH E3 catalytic module) (human, UniProt Q9H871 1-391)
T2 sequence: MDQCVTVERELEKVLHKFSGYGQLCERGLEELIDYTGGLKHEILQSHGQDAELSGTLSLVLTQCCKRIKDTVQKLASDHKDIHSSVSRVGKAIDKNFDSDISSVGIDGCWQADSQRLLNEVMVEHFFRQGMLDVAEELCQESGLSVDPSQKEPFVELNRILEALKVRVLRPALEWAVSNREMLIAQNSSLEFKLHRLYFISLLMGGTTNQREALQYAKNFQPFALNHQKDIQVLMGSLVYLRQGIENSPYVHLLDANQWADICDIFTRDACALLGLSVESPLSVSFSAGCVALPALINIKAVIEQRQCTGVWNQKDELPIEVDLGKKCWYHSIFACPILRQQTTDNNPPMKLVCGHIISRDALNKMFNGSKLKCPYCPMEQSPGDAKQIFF

Chelator-GID^SR4 = Chelator-GID^SR4 (S. cerevisiae, UniProt P53076 1-958; P40208 1-455; P40547 1-921; P38263 1-362; Q12508 1-421; P40492 …)

B1: UBE2H C87K, insect cell-expressed and fully phosphorylated with CK2 (the E2 chain of the UBE2H~ubiquitin mimic) (enzyme, human, UniProt P62256 1-183, looked up)
chain: MSSPSPGKRRMDTDVVKLIESKHEVTILGGLNEFVVKFYGPQGTPYEGGVWKVRVDLPDKYPFKSPSIGFMNKIFHPNIDEASGTVKLDVINQTWTALYDLTNIFESFLPQLLAYPNPIDPLNGDAAAMYLHRPEEYKQKIKEYIQKYATEEALKEQEEGTGDSSSESSMSDFSEDEAQDMEL
modifications: phosphoserines 164, 165, 166, 168, 169, 171 and 174; K87 isopeptide-bonded to ubiquitin
B1: binds [1]; binds [2].

B2: Fbp1-6xHis (fructose-1,6-bisphosphatase) (natural protein, S. cerevisiae)
chain: MPTLVNGPRRDSTEGFDTDIITLPRFIIEHQKQFKNATGDFTLVLNALQFAFKFVSHTIRRAELVNLVGLAGASNFTGDQQKKLDVLGDEIFINAMRASGIIKVLVSEEQEDLIVFPTNTGSYAVCCDPIDGSSNLDAGVSVGTIASIFRLLPDSSGTINDVLRCGKEMVAACYAMYGSSTHLVLTLGDGVDGFTLDTNLGEFILTHPNLRIPPQKAIYSINEGNTLYWNETIRTFIEKVKQPQADNNNKPFSARYVGSMVADVHRTFLYGGLFAYPCDKKSPNGKLRLLYEAFPMAFLMEQAGGKAVNDRGERILDLVPSHIHDKSSIWLGSSGEIDKFLDHIGKSQ
B2: binds (Chelator-GID^SR4).

— PMC10843684 (Molecular cell, 2023)
